This note sets out measurements from US20050042720A1, “Novel promiscuous G alpha protein mutants and their use” (7TM Pharma A/S, priority 2003, published 2005).

Changes are numbered by the printed parent chain. Numbers in names are those of the source.

What all share (type): cell-based
The test system of experiment [1] is phospholipase Cβ. As to the kind of experiment: PI-hydrolysis assay in COS7 cells cotransfected with receptor and mutant/chimeric Gαq subunits (Example 3). The source says:
Murine wild type Gαq was cloned from mouse brain by RT-PCR and inserted into the BamHI-NslI-sites of pcDNA1.1. All wild type and mutant Gα subunits contained an internal hemagglutinin epitope tag DVPDYA (Wedegaertner et al., 1993) replacing Gαqwt residues 125-130. To create the C-terminally modified Gαqi5 subunit, in which the last five aa of wt Gαq were replaced with the corresponding Gαi sequence, a 175-bp BglII-NslI fragment was replaced, in a two piece ligation, with a synthetic DNA fragment, containing the desired codon changes. Gαqs5/z5 were prepared in an analogous fashion. GαqG66x mutants were prepared with the Stratagene quick change mutagenesis kit according to the manufacturer's instructions. To generate GαqG66Xi5/s5/z5(X=D,V,N,K), a 175 bp BglII-NsiI fragment was removed from GαqG66X and replaced with the corresponding BglII-NsiI fragment of Gαqi5 and Gαqs5/z5, respectively. The correctness of all PCR-derived sequences was verified by sequencing in both directions. […]
18-24 h after transfections cells were splitted into 35-mm dishes in culture medium supplemented with 3 μCi/ml [3H]myo-inositol (20 Ci/mmol; Amersham). […] Cells were then stimulated in the same buffer with the appropriate agonist ligands for 1 h (37° C.), and increases in intracellular inositolphosphate determined by anion exchange chromatography as described (Kostenis et al., 1997).

Experiment [2] concerns chemokine CXCR1 and dopamine D2 receptor. Description: Calcium mobilization assay in COS7 cells cotransfected with receptor and Gα16 constructs. Particulars: CXCR1 (interleukin 8) and D2 ((−)quinpirole) receptors, FIG. 13. The procedure:
24 h after transfection, COS7 cells were split into 96 well plates at a density of ˜30,000 cells per well. 18-24 h later cells were loaded with a calcium sensitive dye (calcium assay kit from Molecular devices) for 1 h (37 C, 5% CO2) and then for 1 h at room temperature. Ligands were transferred to the cell plate from the sample plate using the Novostar's integrated pipette. To obtain the specific fluorescence response, baseline fluorescence counts before addition of ligands were subtracted from the peak of the calcium response Specific responses were used to plot the concentration response curve.
Murine Wild type Gα16 was cloned as described above. […] was prepared with the Stratagene quick change mutagenesis kit according to the manufacturers instructions. The correctness of all PCR-derived sequences was verified by sequencing in both directions.
COS7 cells were grown and transfected as described above.
24 h after transfection, COS7 cells were split into 96 well plates at a density of […] cells per well. 18-24 h later cells were loaded with a calcium sensitive dye (calcium assay kit from Molecular devices) for 1 h (37 C, 5% CO2) and then for 1 h at room temperature. […] To obtain the specific fluorescence response, baseline fluorescence counts before addition of ligands were subtracted from the peak of the calcium response. […]
A general note: Calcium flux is commonly read through the fluorescence of an indicator in the cells.

Experiment [3] relates to phospholipase Cβ. As to the kind of experiment: Basal IP formation in COS7 cells transfected with Gα subunit alone (constitutive activity). Particulars: no receptor, no ligand, FIG. 6. Here is the method:
Basal IP3 formation was determined in COS7 cells transiently transfected with vector DNA, Gαqwt, GαqG66D and the constitutively active Gα15Q212L mutant as described in detail in the Examples. Data represent mean values±SEM of 4 independent experiments performed in duplicate.
COS7 cells were grown in Dulbecco's modified Eagles medium supplemented with 10% (vol/vol) fetal calf serum, Penicillin-Streptomycin (10000 IU/ml-10000 μg/ml) and 2 mM L-Glutamin in a humidified 5% CO2 incubator. For transfections, 1×10^6 cells were seeded into 100-mm dishes. About 24 h later, cells were cotransfected with the indicated G protein and receptor constructs (1:1 ratio) by using the Fugene transfection reagent as per manufacturer's instructions.
18-24 h after transfections cells were split into 35 mm dishes in culture medium supplemented with 3 μCi/ml [3H]myo-inositol (20 Ci/mmol: Amersham). […] Cells were then stimulated in the same buffer with the appropriate agonist ligands for 45 min (37° C.), and increases in intracellular inositolphosphate determined by anion exchange chromatography as described (Kostenis et al., 1997)
To test whether the mutant Gαq subunit differs from Gαq wt in its ability to signal to phospholipase Cβ, plasmids encoding the respective cDNAs were transiently transfected into COS7 cells and IP1 accumulation was measured.

B1: GαqG66Di5: Gαq combining G66D linker I mutation with C-terminal five amino acids of Gαi; SEQ ID No. 6 (protein, listed as Mus musculus)
chain: MTLESIMACCLSEEAKEARRINDEIERHVRRDKRDARRELKLLLLGTGESGKSTFIKQMRIIHGSXYSDEDKRGFTKLVYQNIFTAMQAMIRAMDTLKIPYKYEHNKAHAQLVREVDVEKVSAFENPYVDAIKSLWNDPGIQECYDRRREYQLSDSTKYYLNDLDRVADPSYLPTQQDVLRVRVPTTGIIEYPFDLQSVIFRMVDVGGQRSERRKWIHCFENVTSIMFLVALSEYDQVLVESDNENRMEESKALFRTIITYPWFQNSSVILFLNKKDLLEEKIMYSHLVDYFPEYDGPQRDAQAAREFILKMFVDLNPDSDKIIYSHFTCATDTENIRFVFAAVKDTILQLNLKDCGLF
modifications: (66)..(66) Xaa is selected from the group consisting of Asp, Val, Asn and Lys
On to B1, for which, in experiment [1] (Gi/o coupled receptors CXCR2, CCR5, SSTR1, KOR, GPR7, HM74a, NPY4, M2, P2Y12, FIG. 11), the “agonist-induced IP3 / PLCβ activity” value is “robust IP3 increases exceeding those observed upon coexpression with the C-terminal or the G66D mutant alone”.

B2: GαqG66Ds5: Gαq combining G66D linker I mutation with C-terminal five amino acids of Gαs; SEQ ID No. 7 (protein, listed as Mus musculus)
chain: B1 chain with D355Q, C356Y, G357E, F359L
modifications: (66)..(66) Xaa is selected from the group consisting of Asp, Val, Asn and Lys
As for B2, in experiment [1] (coexpressed non-Gq-selective receptor, Gs-linked GLP1, GIP, DP, adrenergic β2 (FIG. 12)), the “response (stimulation of PLCβ) versus individual mutants” value is “robust response exceeding the response observed upon coexpression with the C-terminal or the GαwG66D mutant alone”.

B3: Gα16: Murine wild type Gα16 (protein, UniProt P30678 1-374, looked up)
Guanine nucleotide-binding …: MARSLTWGCCPWCLTEEEKTAARIDQEINRILLEQKKQEREELKLLLLGPGESGKSTFIKQMRIIHGVGYSEEDRRAFRLLIYQNIFVSMQAMIDAMDRLQIPFSRPDSKQHASLVMTQDPYKVSTFEKPYAVAMQYLWRDAGIRACYERRREFHLLDSAVYYLSHLERISEDSYIPTAQDVLRSRMPTTGINEYCFSVKKTKLRIVDVGGQRSERRKWIHCFENVIALIYLASLSEYDQCLEENDQENRMEESLALFSTILELPWFKSTSVILFLNKTDILEDKIHTSHLATYFPSFQGPRRDAEAAKSFILDMYARVYASCAEPQDGGRKGSRARRFFAHFTCATDTQSVRSVFKDVRDSVLARYLDEINLL
On to B3, for which the “agonist-induced intracellular calcium mobilization” value in experiment [2] is recorded as “gain the ability to stimulate calcium mobilization”.

B4: Gα15Q212L: GTPase defective, constitutively active Gα15 mutant replacing Glutamine 212 by Leucine (protein, UniProt P30678 1-374, looked up, variant Q212L)
Guanine nucleotide-binding …: B3 Guanine nucleotide-binding … with Q212L
B4: the “basal IP1 accumulation / ability to activate PLCβ (constitutive activity)” value in experiment [3] is reported as “robust IP1 increase”.

B5: Gα16G69D: Gα16 with glycine 69 to aspartate mutation in linker I; SEQ ID No 5 (protein, listed as Homo sapiens)
chain: MARSLTWRCCPWCLTEDEKAAARVDQEINRILLEQKKQDRGELKLLLLGPGESGKSTFIKQMRIIHGAXYSEEERKGFRPLVYQNIFVSMRAMIEAMERLQIPFSRPESKHHASLVMSQDPYKVTTFEKRYAAAMQWLWRDAGIRACYERRREFHLLDSAVYYLSHLERITEEGYVPTAQDVLRSRMPTTGINEYCFSVQKTNLRIVDVGGQKSERKKWIHCFENVIALIYLASLSEYDQCLEENNQENRMKESLALFGTILELPWFKSTSVILFLNKTDILEEKIPTSHLATYFPSFQGPKQDAEAAKRFILDMYTRMYTGCVDGPEGSKKGARSRRLFSHYTCATDTQNIRKVFKDVRDSVLARYLDEINLL
modifications: (69)..(69) Xaa is selected from the group consisting of Asp, Val, Asn and Lys
On to B5, for which the “agonist-induced intracellular calcium mobilization” value in experiment [2] is “significantly increased”.
